Data from the Human Domainome abundance scans (Beltran et al. 2025).
± gives the uncertainty stated by the source.

B1: Transcriptional regulator ERG, residues 117 to 197; numbered along this chain, P11308 (parent)
chain: NMTTNERRVIVPADPTLWSTDHVRQWLEWAVKEYGLPDVNILLFQNIDGKELCKMTKDDFQRLTPSYNADILLSHLHYLRE

Variants of: B1
Assay: abundance fitness (aPCA) (normalised: wild type 0, dead -1); higher = more abundant; growth selection in yeast, the domain comes from the species named
Details: Homo sapiens

Row | Variant | abundance fitness
1 | NMTTNERRVIVPADPTLWSTDHVRQWLEWAVKEYGLPDVNILLFQNIDGKELCKMTKDAFQRLTPSYNADILLSHLHYLRE [D59A] | 0.068 ± 0.078
2 | NMTTNERRVIVPADPTLWSTDHVRQWLEWAVKEYGLPDVNILLFQNIDGKELCKMTKDYFQRLTPSYNADILLSHLHYLRE [D59Y] | -0.666 ± 0.33
3 | NMTTNERRVIVPADPTLWSTDHVRQWLEWAVKEYGLPDVNILLFQNIDGKELCKMTKDTFQRLTPSYNADILLSHLHYLRE [D59T] | 0.059 ± 0.13
4 | NMTTNERRVIVPADPTLWSTDHVRQWLEWAVKEYGLPDVNILLFQNIDGKELCKMTKDLFQRLTPSYNADILLSHLHYLRE [D59L] | -0.765 ± 0.18
5 | NMTTNERRVIVPADPTLWSTDHVRQWLEWAVKEYGLPDVNILLFQNIDGKELCKMTKDWFQRLTPSYNADILLSHLHYLRE [D59W] | -0.743 ± 0.18
6 | NMTTNERRVIVPADPTLWSTDHVRQWLEWAVKEYGLPDVNILLFQNIDGKELCKMTKDGFQRLTPSYNADILLSHLHYLRE [D59G] | -0.204 ± 0.053
7 | NMTTNERRVIVPADPTLWSTDHVRQWLEWAVKEYGLPDVNILLFQNIDGKELCKMTKDSFQRLTPSYNADILLSHLHYLRE [D59S] | -0.155 ± 0.1
8 | NMTTNERRVIVPADPTLWSTDHVRQWLEWAVKEYGLPDVNILLFQNIDGKELCKMTKDEFQRLTPSYNADILLSHLHYLRE [D59E] | -0.09 ± 0.075
9 | NMTTNERRVIVPADPTLWSTDHVRQWLEWAVKEYGLPDVNILLFQNIDGKELCKMTKDQFQRLTPSYNADILLSHLHYLRE [D59Q] | -0.04 ± 0.12
10 | NMTTNERRVIVPADPTLWSTDHVRQWLEWAVKEYGLPDVNILLFQNIDGKELCKMTKDNFQRLTPSYNADILLSHLHYLRE [D59N] | -0.24 ± 0.13
11 | NMTTNERRVIVPADPTLWSTDHVRQWLEWAVKEYGLPDVNILLFQNIDGKELCKMTKDFFQRLTPSYNADILLSHLHYLRE [D59F] | -0.538 ± 0.31
12 | NMTTNERRVIVPADPTLWSTDHVRQWLEWAVKEYGLPDVNILLFQNIDGKELCKMTKDVFQRLTPSYNADILLSHLHYLRE [D59V] | -0.232 ± 0.073
13 | NMTTNERRVIVPADPTLWSTDHVRQWLEWAVKEYGLPDVNILLFQNIDGKELCKMTKDKFQRLTPSYNADILLSHLHYLRE [D59K] | -0.199 ± 0.12
14 | NMTTNERRVIVPADPTLWSTDHVRQWLEWAVKEYGLPDVNILLFQNIDGKELCKMTKDHFQRLTPSYNADILLSHLHYLRE [D59H] | -0.244 ± 0.24
15 | NMTTNERRVIVPADPTLWSTDHVRQWLEWAVKEYGLPDVNILLFQNIDGKELCKMTKDRFQRLTPSYNADILLSHLHYLRE [D59R] | -0.154 ± 0.067
16 | NMTTNERRVIVPADPTLWSTDHVRQWLEWAVKEYGLPDVNILLFQNIDGKELCKMTKDCFQRLTPSYNADILLSHLHYLRE [D59C] | 0.027 ± 0.13
17 | NMTTNERRVIVPADPTLWSTDHVRQWLEWAVKEYGLPDVNILLFQNIDGKELCKMTKDMFQRLTPSYNADILLSHLHYLRE [D59M] | -0.204 ± 0.12

Row | Variant | abundance fitness
18 | NMTTNERRVIVPADPTLWSTDHVRQWLEWAVKEYGLPDVNILLFQNIDGKELCKMGKDDFQRLTPSYNADILLSHLHYLRE [T56G] | 0.042 ± 0.041
19 | NMTTNERRVIVPADPTLWSTDHVRQWLEWAVKEYGLPDVNILLFQNIDGKELCKMLKDDFQRLTPSYNADILLSHLHYLRE [T56L] | -0.265 ± 0.07
20 | NMTTNERRVIVPADPTLWSTDHVRQWLEWAVKEYGLPDVNILLFQNIDGKELCKMMKDDFQRLTPSYNADILLSHLHYLRE [T56M] | -0.282 ± 0.12
21 | NMTTNERRVIVPADPTLWSTDHVRQWLEWAVKEYGLPDVNILLFQNIDGKELCKMPKDDFQRLTPSYNADILLSHLHYLRE [T56P] | -0.632 ± 0.2
22 | NMTTNERRVIVPADPTLWSTDHVRQWLEWAVKEYGLPDVNILLFQNIDGKELCKMFKDDFQRLTPSYNADILLSHLHYLRE [T56F] | -0.502 ± 0.19
23 | NMTTNERRVIVPADPTLWSTDHVRQWLEWAVKEYGLPDVNILLFQNIDGKELCKMRKDDFQRLTPSYNADILLSHLHYLRE [T56R] | -0.082 ± 0.051
24 | NMTTNERRVIVPADPTLWSTDHVRQWLEWAVKEYGLPDVNILLFQNIDGKELCKMYKDDFQRLTPSYNADILLSHLHYLRE [T56Y] | -0.457 ± 0.16
25 | NMTTNERRVIVPADPTLWSTDHVRQWLEWAVKEYGLPDVNILLFQNIDGKELCKMIKDDFQRLTPSYNADILLSHLHYLRE [T56I] | -0.236 ± 0.17
26 | NMTTNERRVIVPADPTLWSTDHVRQWLEWAVKEYGLPDVNILLFQNIDGKELCKMKKDDFQRLTPSYNADILLSHLHYLRE [T56K] | 0.081 ± 0.087
27 | NMTTNERRVIVPADPTLWSTDHVRQWLEWAVKEYGLPDVNILLFQNIDGKELCKMDKDDFQRLTPSYNADILLSHLHYLRE [T56D] | -0.01 ± 0.081
28 | NMTTNERRVIVPADPTLWSTDHVRQWLEWAVKEYGLPDVNILLFQNIDGKELCKMQKDDFQRLTPSYNADILLSHLHYLRE [T56Q] | -0.108 ± 0.14
29 | NMTTNERRVIVPADPTLWSTDHVRQWLEWAVKEYGLPDVNILLFQNIDGKELCKMHKDDFQRLTPSYNADILLSHLHYLRE [T56H] | -0.123 ± 0.23
30 | NMTTNERRVIVPADPTLWSTDHVRQWLEWAVKEYGLPDVNILLFQNIDGKELCKMNKDDFQRLTPSYNADILLSHLHYLRE [T56N] | -0.076 ± 0.11
31 | NMTTNERRVIVPADPTLWSTDHVRQWLEWAVKEYGLPDVNILLFQNIDGKELCKMSKDDFQRLTPSYNADILLSHLHYLRE [T56S] | 0.077 ± 0.072
32 | NMTTNERRVIVPADPTLWSTDHVRQWLEWAVKEYGLPDVNILLFQNIDGKELCKMVKDDFQRLTPSYNADILLSHLHYLRE [T56V] | -0.066 ± 0.056
33 | NMTTNERRVIVPADPTLWSTDHVRQWLEWAVKEYGLPDVNILLFQNIDGKELCKMEKDDFQRLTPSYNADILLSHLHYLRE [T56E] | -0.058 ± 0.07
34 | NMTTNERRVIVPADPTLWSTDHVRQWLEWAVKEYGLPDVNILLFQNIDGKELCKMTKDDAQRLTPSYNADILLSHLHYLRE [F60A] | -0.401 ± 0.08
